{"source": "patent US20220119534A1", "about": "(DRAGONFLY THERAPEUTICS, published 2022)", "binders": {"B1": {"name": "F3'-1602 TriNKET (bispecific antibody, human IgG1, kappa)", "chain": "QLQLQESGPGLVKPSETLSLTCTVSGFSLTNYGLHWIRQPPGKCLEWIGVIWSGGKTDYNPSLKSRVTISKDTSKNQFSLKLSSVQAADTAVYYCAKYDYDDSLDYWGQGTLVTVSSGGGGSGGGGSGGGGSGGGGSDIQMTQSPSSLSASVGDRVTITCHASQNINFWLSWYQQKPGKAPKLLIYEASNLHTGVPSRFSGSGSGTRFTLTISSLQPEDIATYYCQQSHSYPLTFGCGTKLEIKGSDKTHTCPPCPAPELLGGPSVFLFPPKPKDTLMISRTPEVTCVVVDVSHEDPEVKFNWYVDGVEVHNAKTKPREEQYNSTYRVVSVLTVLHQDWLNGKEYKCKVSNKALPAPIEKTISKAKGQPREPRVYTLPPCRDELTKNQVSLTCLVKGFYPSDIAVEWESNGQPENNYKTTPPVLVSDGSFTLYSKLTVDKSRWQQGNVFSCSVMHEALHNHYTQKSLSLSPG", "heavy": "EVQLVESGGGLVKPGGSLRLSCAASGFTFSSYSMNWVRQAPGKGLEWVSSISSSSSYIYYADSVKGRFTISRDNAKNSLYLQMNSLRAEDTAVYYCARGAPIGAAAGWFDPWGQGTLVTVSSASTKGPSVFPLAPSSKSTSGGTAALGCLVKDYFPEPVTVSWNSGALTSGVHTFPAVLQSSGLYSLSSVVTVPSSSLGTQTYICNVNHKPSNTKVDKKVEPKSCDKTHTCPPCPAPELLGGPSVFLFPPKPKDTLMISRTPEVTCVVVDVSHEDPEVKFNWYVDGVEVHNAKTKPREEQYNSTYRVVSVLTVLHQDWLNGKEYKCKVSNKALPAPIEKTISKAKGQPREPQVCTLPPSRDELTENQVSLTCLVKGFYPSDIAVEWESNGQPENNYKTTPPVLDSDGSFFLYSWLTVDKSRWQQGNVFSCSVMHEALHNHYTQKSLSLSPG", "light": "DIQMTQSPSSVSASVGDRVTITCRASQGISSWLAWYQQKPGKAPKLLIYAASSLQSGVPSRFSGSGSGTDFTLTISSLQPEDFATYYCQQGVSFPRTFGGGTKVEIKRTVAAPSVFIFPPSDEQLKSGTASVVCLLNNFYPREAKVQWKVDNALQSGNSQESVTEQDSKDSTYSLSSTLTLSKADYEKHKVYACEVTHQGLSSPVTKSFNRGEC", "notes": "Trispecific F3' format: CLEC12A scFv-Fc paired with NKG2D Fab-Fc; Stressed and control samples of the stability studies are the same molecule; also called AB0237"}, "B2": {"name": "AB0089 TriNKET (bispecific antibody, human IgG1, kappa)", "chain": "B1 chain with S53V, K56A, K71V, Y98G, D101G, S103T, R207D, I220F", "heavy": "B1 heavy", "light": "B1 light", "notes": "F3' format heterodimer of three chains; human IgG1 Fc with EW-RVT and Y349C/S354C mutations; also called AB0089 Lot AB0089-002; CLEC12A TriNKET AB0089"}, "B3": {"name": "F3'-1602 TriNKET (other)", "chain": "B1 chain", "heavy": "B1 heavy", "light": "B1 light", "notes": "CLEC12A scFv-Fc, NKG2D A49MI Fab-Fc, human IgG1 Fc; also called AB0237"}, "B4": {"name": "AB0192 TriNKET (other)", "chain": "EVQLVESGGGVVQPGGSLRLSCAASGFTFNAFGMHWVRQAPGKCLEWVAFISSGSTSIYYANTVKGRFTISRDNSKNTLYLQMNSLRAEDTAVYYCARDGYPTGGAMDYWGQGTSVTVSSGGGGSGGGGSGGGGSGGGGSDIQMTQSPSSLSASVGDRVTITCKASQDIYNYLSWFQQKPGKAPKPLIYRANILVSGVPSRFSGSGSGQDYTFTISSLQPEDIATYYCLQFDAFPFTFGCGTKLEIKGSDKTHTCPPCPAPELLGGPSVFLFPPKPKDTLMISRTPEVTCVVVDVSHEDPEVKFNWYVDGVEVHNAKTKPREEQYNSTYRVVSVLTVLHQDWLNGKEYKCKVSNKALPAPIEKTISKAKGQPREPRVYTLPPCRDELTKNQVSLTCLVKGFYPSDIAVEWESNGQPENNYKTTPPVLVSDGSFTLYSKLTVDKSRWQQGNVFSCSVMHEALHNHYTQKSLSLSPG", "heavy": "B1 heavy", "light": "B1 light", "notes": "the condition stands under assay; also called AB0192 Lot AB0192-005"}}, "key": {"[1]": {"target": "T1, Human CD16a V158 (FcγRIIIa V158) (human, UniProt P08637 17-208, biotinylated (site not stated))", "T1 construct": "V158 is the allele name in mature numbering; also called hCD16aV; hCD16a V158", "T1 sequence (P08637 17-208 F176V limits assumed)": "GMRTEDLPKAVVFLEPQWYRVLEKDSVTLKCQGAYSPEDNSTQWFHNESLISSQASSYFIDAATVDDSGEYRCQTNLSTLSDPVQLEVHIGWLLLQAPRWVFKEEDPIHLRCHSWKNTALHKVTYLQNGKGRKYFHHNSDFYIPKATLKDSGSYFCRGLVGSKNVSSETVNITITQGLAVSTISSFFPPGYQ", "assay": "SPR; biotinylated CD16a V158 captured on SA chip, TriNKET as analyte; 1:1 kinetic fit; control sample, n=3"}, "Human CLEC12A-His [2]": {"target": "T2, Human CLEC12A-His (human, UniProt Q5QGZ9 65-265)", "T2 construct": "Recombinant soluble protein made in house (Dragonfly Tx); The hCLEC12A spot of the HuProt array is written under this molecule as well; also called hCLEC12A-His; hCLEC12A; not shown: His tag", "T2 sequence": "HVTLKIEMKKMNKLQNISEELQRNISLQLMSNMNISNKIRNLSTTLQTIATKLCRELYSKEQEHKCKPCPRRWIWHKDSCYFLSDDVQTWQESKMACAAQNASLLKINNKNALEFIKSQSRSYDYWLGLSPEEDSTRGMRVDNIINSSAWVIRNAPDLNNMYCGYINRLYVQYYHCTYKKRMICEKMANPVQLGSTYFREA", "assay": "SPR Biacore 8K 37 C; TriNKET captured on anti-hFc chip, hCLEC12A-His as analyte; 1:1 fit; after 4 wks 40 C in phosphate/citrate/NaCl pH 7.8, n=2"}, "Human CD32b (FcγRIIb)": {"target": "T3, Human CD32b (FcγRIIb) (human, UniProt P31994 46-217, limits assumed, biotinylated)", "T3 construct": "Bought recombinant receptor; also called hFcγRIIb; CD32b (FcγR2b)", "T3 sequence (looked up)": "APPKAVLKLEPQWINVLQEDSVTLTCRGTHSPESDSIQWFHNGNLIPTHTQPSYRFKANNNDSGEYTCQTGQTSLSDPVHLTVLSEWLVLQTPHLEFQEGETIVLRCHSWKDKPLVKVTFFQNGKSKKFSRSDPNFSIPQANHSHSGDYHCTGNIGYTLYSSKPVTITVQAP", "assay": "SPR 25C, average"}, "[3]": {"target": "T4, Human CLEC12A-His (recombinant, K244 WT) (human, UniProt Q5QGZ9 65-265)", "T4 construct": "Made in house (Dragonfly Tx); also called hCLEC12A; hCLEC12A-His; not shown: His tag", "T4 sequence": "T2 sequence", "assay": "SPR 37C, two-state fit (ka1), average"}, "[4]": {"target": "T4, Human CLEC12A-His (recombinant, K244 WT)", "assay": "SPR, two-state fit (kd1); after forced oxidation"}, "[5]": {"target": "T4, Human CLEC12A-His (recombinant, K244 WT)", "assay": "SPR, two-state fit (kd1); control sample"}, "[6]": {"target": "T4, Human CLEC12A-His (recombinant, K244 WT)", "assay": "SPR, two-state fit; control sample"}, "[7]": {"target": "T5, recombinant human CLEC12A-His (human, UniProt Q5QGZ9 65-265)", "T5 construct": "also called hCLEC12A-His; hCLEC12A", "T5 sequence": "T2 sequence", "assay": "SPR"}, "[8]": {"target": "T6, human CLEC12A expressed on cells (human, UniProt Q5QGZ9 1-265)", "T6 construct": "Transduced isogenic cells or endogenous expression on AML cells; also called RMA-hCLEC12A; Ba/F3-hCLEC12A", "T6 sequence": "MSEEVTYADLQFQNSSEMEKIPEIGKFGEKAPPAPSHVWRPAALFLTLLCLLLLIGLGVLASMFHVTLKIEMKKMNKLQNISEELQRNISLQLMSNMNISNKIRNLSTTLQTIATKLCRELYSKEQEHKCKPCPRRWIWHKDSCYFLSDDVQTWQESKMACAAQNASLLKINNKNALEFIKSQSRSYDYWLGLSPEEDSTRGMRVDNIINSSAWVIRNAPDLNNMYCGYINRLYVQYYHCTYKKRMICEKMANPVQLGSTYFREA", "assay": "flow cytometry, HL60"}, "[9]": {"target": "T5, recombinant human CLEC12A-His", "assay": "SPR, CLEC12A binding"}, "mFc-hNKG2D": {"target": "T7, mFc-hNKG2D (human, UniProt P26718 73-216)", "T7 construct": "extracellular domain; Recombinant mFc-tagged NKG2D dimer, made in house; also called human NKG2D; not shown: mouse Fc tag", "T7 sequence (looked up)": "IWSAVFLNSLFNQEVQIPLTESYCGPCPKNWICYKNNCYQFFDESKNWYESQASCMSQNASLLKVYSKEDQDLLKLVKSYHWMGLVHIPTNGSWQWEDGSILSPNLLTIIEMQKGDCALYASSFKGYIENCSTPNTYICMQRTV", "assay": "SPR; sample after forced oxidation (0.02% H2O2, 24 h)"}, "Human CD16a V158": {"target": "T8, Human CD16a V158 (human, UniProt P08637 17-208, biotinylated)", "T8 construct": "Bought recombinant receptor; also called hCD16a (V158); hFcγRIIIa V158", "T8 sequence (P08637 17-208 F176V limits assumed)": "as the sequence (P08637 17-208 F176V limits assumed) above", "assay": "SPR; sample after forced oxidation (0.02% H2O2, 24 h)"}, "Human CLEC12A-His [10]": {"target": "T9, Human CLEC12A-His (human, UniProt Q5QGZ9 65-265)", "T9 construct": "Recombinant soluble protein made in house; also called hCLEC12A-His; hCLEC12A; not shown: His tag", "T9 sequence": "T2 sequence", "assay": "SPR; taken as the sample after forced oxidation (0.02% H2O2, 24 h)"}, "Human FcRn": {"target": "T10, Human FcRn (human, UniProt P55899 24-297; P61769 21-119)", "T10 construct": "Bought recombinant receptor; also called hFcRn", "T10 sequence (P55899 24-297 limits assumed, chain 1 of 2)": "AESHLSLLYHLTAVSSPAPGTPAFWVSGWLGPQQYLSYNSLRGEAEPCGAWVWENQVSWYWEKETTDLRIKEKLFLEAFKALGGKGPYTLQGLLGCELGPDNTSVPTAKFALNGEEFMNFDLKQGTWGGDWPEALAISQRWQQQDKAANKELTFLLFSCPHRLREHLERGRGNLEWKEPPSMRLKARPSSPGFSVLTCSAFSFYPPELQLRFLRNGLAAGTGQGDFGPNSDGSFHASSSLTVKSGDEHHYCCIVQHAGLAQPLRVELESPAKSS", "T10 sequence (P61769 21-119 limits assumed, chain 2 of 2)": "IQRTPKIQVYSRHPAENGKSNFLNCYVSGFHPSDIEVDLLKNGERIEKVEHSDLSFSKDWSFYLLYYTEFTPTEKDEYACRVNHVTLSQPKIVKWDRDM", "assay": "SPR, steady state fit"}, "Cynomolgus FcRn": {"target": "T11, Cynomolgus FcRn (cynomolgus monkey, UniProt Q8SPV9 24-297; Q8SPW0 21-119)", "T11 construct": "Bought recombinant receptor; also called cFcRn; Cyno FcRn", "T11 sequence (Q8SPV9 24-297 limits assumed, chain 1 of 2)": "as the sequence (P55899 24-297 limits assumed, chain 1 of 2) above, with N39D, E44Q, G99S, S189G, S190N, L217M, S269T counted along it", "T11 sequence (Q8SPW0 21-119 limits assumed, chain 2 of 2)": "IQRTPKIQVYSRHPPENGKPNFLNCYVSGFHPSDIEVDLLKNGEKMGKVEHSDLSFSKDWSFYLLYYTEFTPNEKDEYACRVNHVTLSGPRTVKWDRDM", "assay": "SPR, steady state fit"}, "[11]": {"target": "T12, human CLEC12A on cells (HL60, PL21, Ba/F3-hCLEC12A) (human, UniProt Q5QGZ9 1-265)", "T12 construct": "Endogenous on the AML lines HL60 and PL21; brought into mouse Ba/F3 cells by retroviral transduction; The cell line stands under assay; also called CLL-1", "T12 sequence": "T6 sequence", "assay": "flow cytometry, PL21 cells"}}, "note": "Where a chain is given by its changes, count along the chain named. Names and notes keep the numbering of the source. Values joined by “and” are separate entries in the source; they are usually repeats but may differ in a detail not shown here. Equal entries are not always repeated."}
{"binder": "B1", "values": [{"measurement": "Kd", "setting": "[1]", "result": 212, "unit": "nM"}, {"measurement": "koff", "setting": "[1]", "result": 0.024, "unit": "s⁻¹"}, {"measurement": "kon", "setting": "[1]", "result": 113000, "unit": "M⁻¹ s⁻¹"}, {"measurement": "Kd", "setting": "Human CLEC12A-His [2]", "result": 1.14, "unit": "nM"}, {"measurement": "koff", "setting": "Human CLEC12A-His [2]", "result": 0.000948, "unit": "s⁻¹"}, {"measurement": "kon", "setting": "Human CLEC12A-His [2]", "result": 829000, "unit": "M⁻¹ s⁻¹"}]}
{"binder": "B2", "values": [{"measurement": "Kd", "setting": "Human CD32b (FcγRIIb)", "result": 6300, "unit": "nM"}, {"measurement": "kon", "setting": "[3]", "result": "1.04e+07", "unit": "M⁻¹ s⁻¹"}, {"measurement": "koff", "setting": "[4]", "result": 0.0481, "unit": "s⁻¹"}, {"measurement": "koff", "setting": "[5]", "result": 0.042, "unit": "s⁻¹"}, {"measurement": "Kd", "setting": "[6]", "result": 1, "unit": "nM"}]}
{"binder": "B3", "values": [{"measurement": "Kd", "setting": "[7]", "result": 0.8, "unit": "nM"}, {"measurement": "EC50", "setting": "[8]", "result": 1.1, "unit": "nM"}, {"measurement": "Kd", "setting": "[9]", "result": 0.6, "unit": "nM"}]}
{"binder": "B4", "values": [{"measurement": "Kd", "setting": "mFc-hNKG2D", "result": 612, "unit": "nM"}, {"measurement": "koff", "setting": "mFc-hNKG2D", "result": 0.119, "unit": "s⁻¹"}, {"measurement": "kon", "setting": "mFc-hNKG2D", "result": 195000, "unit": "M⁻¹ s⁻¹"}, {"measurement": "Kd", "setting": "Human CD16a V158", "result": 162, "unit": "nM"}, {"measurement": "koff", "setting": "Human CD16a V158", "result": 0.0192, "unit": "s⁻¹"}, {"measurement": "kon", "setting": "Human CD16a V158", "result": 119000, "unit": "M⁻¹ s⁻¹"}, {"measurement": "Kd", "setting": "Human CLEC12A-His [10]", "result": 1.71, "unit": "nM"}, {"measurement": "koff", "setting": "Human CLEC12A-His [10]", "result": 0.00132, "unit": "s⁻¹"}, {"measurement": "kon", "setting": "Human CLEC12A-His [10]", "result": 775000, "unit": "M⁻¹ s⁻¹"}, {"measurement": "Kd", "setting": "Human FcRn", "result": "1500 nM and 1300 nM"}, {"measurement": "Kd", "setting": "Cynomolgus FcRn", "result": "1500 nM and 1400 nM and 1200 nM"}, {"measurement": "EC50", "setting": "[11]", "result": 0.43, "unit": "nM"}]}
